This is an account of results in the nanobody polyreactivity screen of Harvey et al. (2022).

The data set in a line: yeast display, Sf9 membrane polyspecificity reagent, FACS + sequencing; frameworks hold sequencing errors. The gist of the method:
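Polyreactivity labels are assigned by the sorting gate from which each nanobody was recovered. The gates were low and high (top ~1%), set on anti-HA fluorescence for expression and streptavidin fluorescence for reagent binding. Before sorting, galactose-induced (36–48 hours) yeast display cells were stained for 1 hour at 4 °C with 10% biotinylated, detergent-solubilized Sf9 membrane reagent.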
On to “QVQLVESGGGLVQAGGSLRLSCAASGGTFFTNAMGWYRHAPGKERELVAVITGSGGRTYYADSVKGRFTISRDNAMNTVYLQMNSLKPEDTAVYYCAARGYSWGQGTQVTLSS”, for which the “polyreactivity (PSR sort gate)” value is listed as “high polyreactivity”.

As for “QVQLVESGGGLVQAGGSLRLSCAASGGTFFWYGMGWYRQAPGKERELVAAITSGGSTYYADSVKGRFTISRDNAKNTVYLQMNSLKPEDTAVYYCATENRFRGWYPTRSSLPYEYWGQGTQVTVSS”, the “polyreactivity (PSR sort gate)” value is on record as “low polyreactivity”.

Regarding “QVQLVESGGGLVQAGGSLRLSCAASGGTFGGYAMGWYRQAPGKERELVAVISQSGGTTYYADSVKGRFTISRDNAKNTVYLQMNSLKPEDTAVYYCNAYTYYKRFGYWGQGTQVTVSS”, the “polyreactivity (PSR sort gate)” value is “high polyreactivity”.

For “QVQLVESGGGLVQAGGSLRLSCAASGGTFGHYTMGWYRQAPGKERELVAAISGSGGTTYYADSVKGRFTISRDNAKNTVYLQINSLKPEDTAVYFCNKGIPTRSVRSYDYWGQGTKVTVSS”, the “polyreactivity (PSR sort gate)” value is on record as “high polyreactivity”. Regarding “QVQLVESGGGLVQAGGSLRLSCAASGGTFGRYAMGWYRQAPGKERELFAAITWGGTRTYYADSVKGRFTISRDNAKNTVYLQMNSLKPEDTAGYYCAAYSNYPVFDYNYWGQGTQVTVSS”, the “polyreactivity (PSR sort gate)” value was “high polyreactivity”. In the case of “QVQLVESGGGLVQAGGSLRLSCAASGGTFGRYAMGWYRQAPGKERELVASITTGGRTNYADSVKGRFTISRDNAKNTVYLQMNSLKPEDTAVYYCAKKRYGYPVPFYYWGQGTQVTVSS” it was “high polyreactivity”; in that of “QVQLVESGGGLVQAGGSLRLSCAASGGTFGSYAMGWYRQAPGKERELVAAIDYSGADTYYADSVKGRFTISRDNAKNTVFLQMNSLKPEDTAVYYCNAEFESGHDLDWYDYWGQGTQVTVSS”, “low polyreactivity”. In the case of “QVQLVESGGGLVQAGGSLRLSCAASGGTFGSYAMGWYRQAPGKERELVAAIRSGDRTYYADSVKGRFTISRDNAKNTVYLQMNSLKPEDTAVYYCAKLRYPYLFWDDSEYWGQGTQVTVSS” it was “low polyreactivity”; in that of “QVQLVESGGGLVQAGGSLRLSCAASGGTFGTNTMGWYRPAHGKERELVAAISKRGGRTYYADSVKGRFTISRDNAKITVYLQMNSLKPEDTAVYYCAADTGGNPKYDYWGQGTQVTVSS”, “high polyreactivity”.

As for “QVQLVESGGGLVQAGGSLRLSCAASGGTFGTYAMGWYRQAPGKERELVAAITYRGGRTYYADSVKGRFTISRDNAKYTVYLQLDCVKPEDSAVYYCAKDVRGHRHPYSLRDYWGEGTQVTVSS”, the “polyreactivity (PSR sort gate)” value is on record as “high polyreactivity”. Consider “QVQLVESGGGLVQAGGSLRLSCAASGGTFGYNAMGWYRQAPGKERELVAAISYTGDSTYYADSVKGRFTISRDNAKNTVDLQMNSLKPEDTAVYYCAASVYYYRYNYWGQATQVTVSS”, for which the “polyreactivity (PSR sort gate)” value is reported as “low polyreactivity”.

For the sequence “QVQLVESGGGLVQAGGSLRLSCAASGGTFGYNVMGWYRQAPGKERELVAAISYSVGGTYYADSVKGRFTISRDNAMNTVYLQMNSLKPEDTAVYYCAATGRRRTYSEYEYWGQGTQVTVSS”, the “polyreactivity (PSR sort gate)” value is on record as “high polyreactivity”.

Take “QVQLVESGGGLVQAGGSLRLSCAASGGTFHRYAMGWYRQAPGKERELVAAISGSGASTYYADSVKGRFTISRDNAKNTVYLQMNSLKPEDTAVYYCNALWYYQIGPRGDHWGQGTQVTVSS”: the “polyreactivity (PSR sort gate)” value is “high polyreactivity”. Consider “QVQLVESGGGLVQAGGSLRLSCAASGGTFKLYAMGWYRQAPGKERELVAAISRRGGSTYYADSVKGRFTISRDNAKNTVYLQMNSLKPEDTAVYYCAAPGPTQSTQRGGYWGQGTQVTVSS”, for which the “polyreactivity (PSR sort gate)” value is listed as “high polyreactivity”. Turning to “QVQLVESGGGLVQAGGSLRLSCAASGGTFKTNAMGWYRQAPGKERELVAAITGSGTSTYYADSVKGRFTISRDNAKNTVYLQMNSLKPEDTAVYYCAADKLYQPGIGDDYWGQGTQVTVSS”, the “polyreactivity (PSR sort gate)” value is on record as “low polyreactivity”. Consider “QVQLVESGGGLVQAGGSLRLSCAASGGTFKTYAMGWYRQAPGKERELVAAITSSSSRTHYADSVKGRFTISRDNAKYTVYLQMNSLKPEVTAVYYCAAAIPSYTRTGYWGQGTQVTVSS”, for which the “polyreactivity (PSR sort gate)” value is “high polyreactivity”. With “QVQLVESGGGLVQAGGSLRLSCAASGGTFLAYAMGWYRQAPGKERELLATITSGGSTNYADSVKGRFTISRDNAKNTVYVQMNSLKPEDTAVYYCAASGRDFIAESPYDYWGQGTQVTVSS”, the “polyreactivity (PSR sort gate)” value is given as “low polyreactivity”.

As for “QVQLVESGGGLVQAGGSLRLSCAASGGTFLAYAMGWYRQAPGKERELVAAITRRGTRTYYADSVKGRFTISRDNAKNTVYLQMNSLKPEDTAVYYCAVSGGFYWGQGTQVTVSS”, the “polyreactivity (PSR sort gate)” value is reported as “high polyreactivity”. In the case of “QVQLVESGGGLVQAGGSLRLSCAASGGTFLYYMGWYRQSPGKERELVAAITFSGGSTYYADSVKGRFTISRDNAKNTVYLQMNSLKPEDTAVYYCAAGWYDWPKYLLSVYTYYLYDSWGQGTQVTVSS” it was “low polyreactivity”. With “QVQLVESGGGLVQAGGSLRLSCAASGGTFNGYAMGWYRQAPGKERELVAAITSGGGSTYADSVKGRFTISRDNAKNTVYLQMNSLKTEDTAVYYCNADQWDEWFWDYDYWGQGTQVTVSS”, the “polyreactivity (PSR sort gate)” value is on record as “low polyreactivity”. For “QVQLVESGGGLVQAGGSLRLSCAASGGTFPLYAMGWYRPAPGKERELVAAIRWSGGRTYYADSVKGRFTISRDNAKNTVYLQMNSLKPEDTAVYYCAADYDDGWGYDYWGQGTQVTVSS”, the “polyreactivity (PSR sort gate)” value is recorded as “high polyreactivity”. Take “QVQLVESGGGLVQAGGSLRLSCAASGGTFQRYVMGWYIQAPGKERELVAAISRSGSTYADSVKGRFTISRDNAKNTVYLQMNSLKPEDTAFYYCNVVRYYRYYLHGYDYWGQGTQVTVSS”: the “polyreactivity (PSR sort gate)” value is recorded as “high polyreactivity”. As to “QVQLVESGGGLVQAGGSLRLSCAASGGTFQWNAMGWYRQAPGNERELVAAITSGGRTNYADSVKGRFTISRDNAKTTVSFQLNSLKPEDTAVYYCAATAWDRYIDYDYWGQGTQETVSS”, the “polyreactivity (PSR sort gate)” value is recorded as “high polyreactivity”.

On to “QVQLVESGGGLVQAGGSLRLSCAASGGTFRDYAMGWYRQAPGKERELVASISWTVGGTYADSVKGRFSISRDNAKNTVYLQMNSLKPEDTAVYYCAADYSPSTWYLYYTLYYYWGQGTQVTVSS”, for which the “polyreactivity (PSR sort gate)” value is recorded as “low polyreactivity”.

Regarding “QVQLVESGGGLVQAGGSLRLSCAASGGTFRFNAMGWYRQAPGKERELVAAISRGGSTNYADSVKGRFTISRDNAKNTVYLQMNSLKPEDTAVYYCAADTYHPRFWYDYWGQGTQVTVSS”, the “polyreactivity (PSR sort gate)” value is given as “low polyreactivity”. Turning to “QVQLVESGGGLVQAGGSLRLSCAASGGTFRGYTMGWYRPAPGKERELVAAITRIGGSTYYADSVKGRFTISRDNAKYTVYLQMNSLKPEDTAVYYCAARGGVPYSNAYDFWGQGTQVTVSS”, the “polyreactivity (PSR sort gate)” value was “low polyreactivity”. In the case of “QVQLVESGGGLVQAGGSLRLSCAASGGTFRPYAMGWYRQAPGKERELVATIRSSGGRTYYADSVKGRFTISRDNAKNTVYLQMNSLKPDDTAVYYCAKRAQTYYGYDYWGQGTQVTVSS” it was “high polyreactivity”; in that of “QVQLVESGGGLVQAGGSLRLSCAASGGTFRVYAMGWYRQAPGKERELVAAITGRGGSTYYADSVKGRFTISRDNAKNTVYLQMNSLKPEETAVYYCAKDPVTTYYKYDYWGQGTQVTVSS”, “low polyreactivity”. In the case of “QVQLVESGGGLVQAGGSLRLSCAASGGTFRYNAMGWYRQAPGKERELVAAITSVGITNYADSVKGRFTISRDNAKNTVYLQMNSLKPEDTAVYYCAKRYYRYGARSWYYPYDYWGQGTQVTVSS”, the “polyreactivity (PSR sort gate)” value is “high polyreactivity”.

Consider “QVQLVESGGGLVQAGGSLRLSCAASGGTFRYYTMVWYRQAPGKERELVAAITRGGRTYYADSVKGRFTISRDNAKNTVYIQMNSLKPEDTAVYYCAAVRPRSPVSYENDYWGQGTQVTVSS”, for which the “polyreactivity (PSR sort gate)” value is “high polyreactivity”. Take “QVQLVESGGGLVQAGGSLRLSCAASGGTFSPYDMGWYRQAPGKERELVASITGSGGSTYYADSVKGRFTISRGNAKNTVYLQMNSLKPEDTAVYYCAAQGYCTYWPYLLRLYEYWGHGTQVTVSS”: the “polyreactivity (PSR sort gate)” value is “low polyreactivity”. In the case of “QVQLVESGGGLVQAGGSLRLSCAASGGTFSTYAMGWYRQAPGKERELVAAISWRGGSTYYADSVKGRFTISRDNAKNTVYLQMNSLKPEDTAVYYCAAYYSRGWLLYWDEMSYWGQGTQVTVSS” it was “high polyreactivity”; in that of “QVQLVESGGGLVQAGGSLRLSCAASGGTFSVNAMGWYRQAHGTERELVAAISWRGGSTYNADSVKGRFTISRDTAKNTFYLQMNSLKPEDTAVYYCAKYRYYYYWFNYWGQGTQVNVSS”, “high polyreactivity”; in that of “QVQLVESGGGLVQAGGSLRLSCAASGGTFSYYAMGWYRQAPGKERELVAAISKRGGSTYYADSVKGRFTISRDNAKNTVYLQMNSLKPEETAVYYCARGYSWSVGYPRVQDMDYWGQGTQVTVSS”, “high polyreactivity”. As for “QVQLVESGGGLVQAGGSLRLSCAASGGTFSYYAMGWYRQAPGKGELVAAISSGGSTNYADSVKGRFTISRDNAKNTVYLQMNSLKPEDTAVYYCAARYRFWGPYNYWGQGTQVTVSS”, the “polyreactivity (PSR sort gate)” value was “high polyreactivity”. With “QVQLVESGGGLVQAGGSLRLSCAASGGTFTDYAMGWYRQAPGKERELVAAISSVGSTNYADSVKGRFTITRDNAQNTVYLQMNSLNPEDTAVYYCAADVYRYWISEYDDYWGQGTQVNVSS”, the “polyreactivity (PSR sort gate)” value was “low polyreactivity”. Consider “QVQLVESGGGLVQAGGSLRLSCAASGGTFTFYAMGWYRQAPGKERELVATINWSGGSTYYADSVKGRFTISRDNAKNTVYLQMNSLKPEDTAVYYCNAAWPYKSVEYWGQGTQVTVSS”, for which the “polyreactivity (PSR sort gate)” value is on record as “low polyreactivity”. Take “QVQLVESGGGLVQAGGSLRLSCAASGGTFTGYAMGWYRQAPGKERELVAAIRSRGGSTYYADSVKGRFTISRDNAKNTVYLQLNSLKPEDTAFYYCNAVSRFSYGYDYWGQGTQVSVSS”: the “polyreactivity (PSR sort gate)” value was “high polyreactivity”. Consider “QVQLVESGGGLVQAGGSLRLSCAASGGTFTGYAMGWYRQEPGKERELVAGISRSGGSTYYADSVKGRFTISRDNAKNTVYLQMNSLKPEDTAVYYCAKDVLKYRYWYYPGYDYWGQGTQVTVSS”, for which the “polyreactivity (PSR sort gate)” value is listed as “high polyreactivity”. As for “QVQLVESGGGLVQAGGSLRLSCAASGGTFTRYAMGWYRQAPGKEREFVAAISGSGGSTYYADSVKGRFTISRDNAKNTVYLQMNSLKPEDTAVYYCNKVPVYPPSYYWGQGTQVTVSS”, the “polyreactivity (PSR sort gate)” value is recorded as “low polyreactivity”.

On to “QVQLVESGGGLVQAGGSLRLSCAASGGTFTTNAMGWYRQAPGKERELVAAITSSGVRTYYADSVKGRFTISRDNAKNTVYLQMNSLKPEDTAVYYCNAVTRYVRLTDDDYWGQGTQVTVSS”, for which the “polyreactivity (PSR sort gate)” value is on record as “high polyreactivity”.
